B1: Spindle pole body assembly component MPS3 (Saccharomyces cerevisiae), P47069 (parent)
chain: MNNSNEHRREEAGAANEQMPYNKAVKSAYADVLKDKMNREQEISLRAIKKGIYTDGGETDNYDMDKENDSAYEMFKKNLDFPLDQHNDDDDDDPYIEDNGQETDGYSDEDYTDEADKSFIEDSDSDSYDLESNSDFEENLESSGEAKKLKWRTYIFYGGLFFVFYFFGSFLMTTVKNNDLESHSSGATSSPGKSFSNLQKQVNHLYSELSKRDEKHSSELDKTVKIIVSQFEKNIKRLLPSNLVNFENDINSLTKQVETISTSMSELQRRNHKFTVENVTQWQDQLVKQLDTHLPQEIPVVINNSSSLLIIPELHNYLSALISDVIESPGIGTAGSAESRWEYDLNRYVKEILSNELQYIDKDYFIQEMNRRLQSNKQEIWEEITNRLETQQQQQQQQVQQDYSNVPQQYSSILMKRLIHQIYNSNQHQWEDDLDFATYVQGTKLLNHLTSPTWRQGSGVQPIELLTDSKQSSSTYWQCENEPGCSWAIRFKTPLYLTKISYMHGRFTNNLHIMNSAPRLISLYVKLSQTKEIKALQTLANQYGFGQHHKRDRNYIKIAKFEYRLTDSRIRQQMYLPPWFIQLKPLVRSIVFQVDENYGNKKFISLRKFIINGVTPQDLQIIENNEFPVLLGDTPEYGVTQNTDEGKRKVLLSKPPYASSSTSTKFHPASNVPSFGQDELDQ
partner: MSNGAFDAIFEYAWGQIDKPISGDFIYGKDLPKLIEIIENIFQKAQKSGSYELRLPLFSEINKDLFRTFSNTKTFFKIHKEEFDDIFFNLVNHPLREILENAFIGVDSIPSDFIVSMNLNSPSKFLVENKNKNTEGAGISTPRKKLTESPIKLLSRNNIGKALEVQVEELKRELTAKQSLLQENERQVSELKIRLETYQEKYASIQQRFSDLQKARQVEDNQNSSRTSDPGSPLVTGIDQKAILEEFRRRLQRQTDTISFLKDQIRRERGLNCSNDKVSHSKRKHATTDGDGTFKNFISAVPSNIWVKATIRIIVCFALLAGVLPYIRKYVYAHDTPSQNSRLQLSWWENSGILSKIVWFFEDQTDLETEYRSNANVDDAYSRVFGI

Variants of: B1
Conditions: with mps2_yeast MPS2, P53159

Effect of a mutation on the interaction, decreasing interaction:
W487A
Q572L;Q573L
W477A
